Like-named read-outs stand apart in the source and are kept apart here.
Assays:
FOXO1 FKH L183P [1] = target: T1, FOXO1 FKH L183P (UniProt Q12778 151-265, L183P); experiment: EMSA
FOXO1 FKH L183P [2] = target: T1, FOXO1 FKH L183P; experiment: EMSA; remark: listed apart in the source

T1 sequence (Q12778 151-265 L183P): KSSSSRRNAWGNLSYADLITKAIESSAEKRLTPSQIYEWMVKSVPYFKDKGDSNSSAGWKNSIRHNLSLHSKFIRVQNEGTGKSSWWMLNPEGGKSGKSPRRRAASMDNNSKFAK

Row | Binder | Kd (FOXO1 FKH L183P [1]) [nM] | Kd (FOXO1 FKH L183P [2]) [nM]
1 | dsIRE (dsDNA) DNA 1: TAAGCTAGTGGTTTGTTTTGCTTGCTAGCAAT DNA 2: ATTGCTAGCAAGCAAAACAAACCACTAGCTTA | 460 ± 100 | –
2 | dsDBE2 (dsDNA) DNA 1: TAAGCTAGTCTTGTTTACATTTTGCTAGCAAT DNA 2: ATTGCTAGCAAAATGTAAACAAGACTAGCTTA | – | 230

From article PMC9482095
